The supplement of paper PMC10567573

B1: SCARA5 (parent)
chain: VTEDLRLKDWEHSIALRNISLAKG

Variants of: B1
Test: protein stability index of a GFP-peptide fusion (GPS, HEK-293T) (PSI 1-6); higher = more stable
Conditions: c terminus: a fixed tail appended
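Note: lentivirally expressed fusions sorted by FACS into six bins by GFP to DsRed ratio, PSI derived from sequencing read proportions per bin multiplied by bin number.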

Protein stability index of substitutions, site by site:
D4: V 2.81; W 2.05; Y 2.01
L5: A 3.92; C 3.34; D 4.14; E 4.19; F 2.97; G 3.93; H 3.91; I 3.63; K 4.14; M 3.46; N 3.83; P 3.77; Q 3.73; R 3.74; S 3.89; T 3.68; V 3.65; W 3.35; Y 3.34
R6: A 3.63; C 3.86; D 3.73; E 3.58; F 3.56; G 3.53; H 3.62; I 3.15; K 3.66; L 3.29; M 2.99; N 3.22; P 3.26; Q 3.79; S 3.27; T 3.75; V 3.95; W 2.62; Y 2.85
L7: A 3.35; C 3.39; D 3.89; E 4.21; F 3.75; G 3.67; H 3.69; I 3.13; K 3.91; M 3.45; N 3.83; P 3.89; Q 3.63; R 2.81; S 3.84; T 3.39; V 3.71; W 2.98; Y 3.2
K8: A 3.43; C 3.25; D 3.62; E 3.49; F 2.85; G 3.18; H 3.44; I 2.87; L 3.04; M 2.77; N 3.48; P 3.48; Q 2.91; R 3.11; S 3.28; T 3.27; V 2.82; W 2.57; Y 2.83
D9: A 2.94; C 3.09; E 3.17; F 2.44; G 2.29; H 2.71; I 2.27; K 2.82; L 2.64; M 1.96; N 3.12; P 3.37; Q 3.31; R 3.14; S 3.17; T 3.18; V 3.01; W 2.22; Y 2.69
W10: A 4.28; C 4.11; D 4.67; E 4.62; F 3.12; G 4.63; H 4.37; I 3.41; K 4.22; L 3.55; M 3.67; N 4.26; P 4.41; Q 4.29; R 4.45; S 4.39; T 4.26; V 4.14; Y 3.62
E11: A 2.51; C 2.47; D 3.33; F 2.24; G 2.87; H 2.72; I 1.91; K 3.3; L 2.74; M 2.46; N 3.56; P 2.92; Q 3.16; R 2.91; S 2.98; T 2.75; V 1.8; W 2.55; Y 2.57
H12: A 3.2; C 2.62; D 3.75; E 3.84; F 2.28; G 3.63; I 2.4; K 3.61; L 2.38; M 2.77; N 3.7; P 3.29; Q 3.43; R 3.51; S 3.88; T 3.51; V 2.44; W 2.25; Y 2.76
S13: A 3.37; C 3.08; D 3.65; E 3.58; F 2.64; G 3.01; H 3.1; I 2.85; K 3.23; L 2.93; M 2.81; N 2.93
